Source: patent US20170281809A1 (Novo Nordisk, published 2017)
Values joined by “and” are separate entries in the source; they are usually repeats but may differ in a detail not shown here. Equal values may be shown once.

Tests used:
[1] = target: single-chain NKG2A-CD94-mFc construct (human) (UniProt Q13241); test: SPR (Biacore T100); sc-NKG2A-CD94-mFc amine-coupled to CM5 chip, antibody 0.157-2.5 nM as analyte
[2] = target: single-chain NKG2A-CD94-mFc construct (human) (UniProt Q13241); test: SPR (Biacore T100); sc-NKG2A-CD94-mFc on CM5 chip, mutant at 0.75 nM or 1.5 nM
[3] = target: T1, CD94/NKG2A on cells (Ba/F3-CD94/NKG2A; NKL cells) (human, UniProt Q13241 1-179); test: flow cytometry on Ba/F3-CD94/NKG2A cells, APC-conjugated secondary antibody
T1 construct: whole, on cells
Procedure: The strength and specificity of humZ270 binding to CD94/NKG2A was tested in flow-cytometry, by analyzing the binding of in HEK293 cells produced wild-type Z270 (recZ270), chimeric Z270 with human IgG4 (chimZ270) or humanized Z270 (humZ270VL1/VH1) to Ba/F3 cells stably over-expressing either CD94/NKG2A or CD94/NKG2C. For this purpose, Ba/F3-CD94/NKG2A and -C cells were incubated with various concentrations of Z270 variants in tissue-culture medium containing 2% FCS, for at least 30 minutes on ice. Subsequently cells were washed, and the cells incubated in similar medium with APC conjugated secondary Ab's, again for at least 30 minutes on ice. After two times washing with ice-cold PBS, the binding of mAb's to cells was visualized using a BD Biosciences FACSarray.

[4] = target: T1, CD94/NKG2A on cells (Ba/F3-CD94/NKG2A; …); test: flow cytometry on Ba/F3-CD94/NKG2A cells, APC-conjugated secondary antibody specific for human antibodies
Procedure: The specificity and efficacy of humZ270VL1/VH1, and various humZ270VL1/VH1 variants with back-mutations in the variable light (VL) or variable heavy (VH) regions were tested for binding to CD94/NKG2A in flow-cytometry. For this, Ba/F3-CD94/NKG2A cells were incubated with humZ270-L46F (VL), humZ270-148V (VL), humZ270-L46F/148V (VL), humZ270-V5Q (VH), humZ270-M69L (VH), humZ270-T71V (VH), humZ270-T73K (VH), humZ270-T75S (VH), humZ270-V5Q/M69L/T71V/T73K/T75S (VH), humZ270-M69L/T71V/T73K/T75S (VH) or two different batches of humZ270VL1/VH1 without back-mutations (“DK” and “CHN”). For this purpose, Ba/F3-CD94/NKG2A or -C cells were incubated with various concentrations of the humZ270 variants in tissue-culture medium containing 2% FCS, for at least 30 minutes on ice. The cells were then washed, and incubated in similar medium with APC conjugated secondary antibodies specific for human antibodies, again for at least 30 minutes on ice. After two times washing with ice-cold PBS, the binding of secondary antibodies to cells was visualized using a BD Biosciences FACSarray.

[5] = target: T1, CD94/NKG2A on cells (Ba/F3-CD94/NKG2A; …); test: flow cytometry on Ba/F3-CD94/NKG2A cells, no HLA-E tetramer pre-incubation, APC-conjugated secondary antibody
Procedure: To test whether humZ270VL1/VH1 prevents ligand (i.e. HLA-E) binding to CD94/NKG2A, we analyzed whether humZ270 could prevent the binding of HLA-E tetramers to CD94/NKG2A over-expressing Ba/F3 cells (Ba/F3-CD94/NKG2A). For this, Ba/F3-CD94/NKG2A were incubated with 1) various concentrations of humZ270 or 2) first incubated with a saturing concentration of HLA-E tetramers (4.7 μg/ml) and then incubated with various concentrations of humZ270. All incubations were performed in tissue-culture medium containing 2% FCS, on ice. Subsequently, cells were incubated with APC-conjugated secondary antibodies specific for mouse Ab's, and analyzed by flow cytometry using a BD Biosciences FACSarray.

T1 sequence (chain, as listed by the source limits assumed, chain 1 of 2): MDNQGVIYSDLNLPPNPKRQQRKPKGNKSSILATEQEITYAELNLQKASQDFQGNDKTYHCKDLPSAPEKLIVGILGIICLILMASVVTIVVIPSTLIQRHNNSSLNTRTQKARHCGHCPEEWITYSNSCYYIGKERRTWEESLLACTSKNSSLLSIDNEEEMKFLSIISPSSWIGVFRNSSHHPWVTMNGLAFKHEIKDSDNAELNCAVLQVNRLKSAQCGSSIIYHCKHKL
T1 sequence (Q13241 whole entry, chain 2 of 2): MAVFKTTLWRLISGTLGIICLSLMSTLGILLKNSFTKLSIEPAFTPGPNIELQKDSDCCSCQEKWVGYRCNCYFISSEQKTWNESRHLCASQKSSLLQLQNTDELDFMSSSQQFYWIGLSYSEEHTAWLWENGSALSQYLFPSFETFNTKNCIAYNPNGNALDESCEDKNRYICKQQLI

B1: chimeric Z270 antibody (antibody, human IgG4, V domains shown)
VH: QVQLQQPGAELVRPGASVKLSCKASGYTFTSYWMNWVKQRPEQGLQWIGRIDPYDSETHYSQKFKDKAILTVDKSSSTAYMRLSSLTSEDSAVYYCARGGYDFDVGTLYWFFDVWGAGTTVTVS
VL: DIQMTQSPASLSASVGETVTITCRASENIYSYLAWYQQKQGKSPQFLVYNAKTLAEGVPSRFSGSGSGTQFSLKINSLQPEDFGSYYCQHHYGTPRTFGGGTKLEIK
[1]
  Kd: 0.0498 nM
  koff: 0.000397 s⁻¹
  kon: 7.97e+06 M⁻¹ s⁻¹

B2: Z270VH alanine mutant R94A (antibody, name in Kabat numbering, V domains shown)
VH: QVQLQQPGAELVRPGASVKLSCKASGYTFTSYWMNWVKQRPEQGLQWIGRIDPYDSETHYSQKFKDKAILTVDKSSSTAYMRLSSLTSEDSAVYYCAAGGYDFDVGTLYWFFDVWGAGTTVTVS
VL: DIQMTQSPASLSASVGETVTITCRASENIYSYLAWYQQKQGKSPQFLVYNAKTLAEGVPSRFSGSGSGTQFSLKINSLQPEDFGSYYCQHHYGTPRTFGGGTKLEIK
[2]
  relative binding (binding level in RU divided by that of chimZ270): 20%

B3: wild-type Z270 produced in HEK293 cells (recZ270) (antibody, mouse IgG1, V domains shown)
VH: QVQLQQPGAELVRPGASVKLSCKASGYTFTSYWMNWVKQRPEQGLQWIGRIDPYDSETHYSQKFKDKAILTVDKSSSTAYMRLSSLTSEDSAVYYCARGGYDFDVGTLYWFFDVWGAGTTVTVS
VL: DIQMTQSPASLSASVGETVTITCRASENIYSYLAWYQQKQGKSPQFLVYNAKTLAEGVPSRFSGSGSGTQFSLKINSLQPEDFGSYYCQHHYGTPRTFGGGTKLEIK
notes: also called recombinant Z270
[3]
  EC50 (read off the curve): ~1 ng/mL

B4: humZ270VL1/VH1 (antibody, human IgG4, V domains shown)
VH: QVQLVQSGAEVKKPGASVKVSCKASGYTFTSYWMNWVRQAPGQGLEWMGRIDPYDSETHYAQKLQGRVTMTTDTSTSTAYMELRSLRSDDTAVYYCARGGYDFDVGTLYWFFDVWGQGTTVTVS
VL: DIQMTQSPSSLSASVGDRVTITCRASENIYSYLAWYQQKPGKAPKLLIYNAKTLAEGVPSRFSGSGSGTDFTLTISSLQPEDFATYYCQHHYGTPRTFGGGTKVEIK
notes: No back-mutations; also called hZ270VL1/VH1; huZ270 with a humZ270VH1 heavy chain
[1]
  Kd: 0.0665 nM
  koff: 0.000498 s⁻¹
  kon: 7.49e+06 M⁻¹ s⁻¹
[4]
  EC50 (read off the curve): ~10 ng/mL and ~8 ng/mL
[5]
  EC50 (read off the curve): ~30 ng/mL
